In the Immune Epitope Database (IEDB):

Tests used:
HLA-A*31:01 [1] = experiment: IEDB peptide-MHC binding, purified MHC/direct/fluorescence; filed as Kd, often an IC50 or EC50 that approximates it; ≥ and ≤ were set here for values at or beyond the usual limits of such assays
HLA-B*15:17 = experiment: as above
HLA-B*46:01 = experiment: as above
HLA-A*02:01 [2] = experiment: as above
HLA-B*58:01 [3] = experiment: as above
HLA-B*18:01 [4] = experiment: as above
HLA-B*40:01 = experiment: as above
HLA-B*27:05 = experiment: as above
HLA-B*08:02 = experiment: as above
HLA-B*48:01 = experiment: as above
HLA-A*01:01 [5] = experiment: as above
HLA-A*69:01 = experiment: as above; details: source organism: Mycobacterium tuberculosis
HLA-B*08:03 = experiment: as above
HLA-B*57:01 = experiment: as above
HLA-B*15:01 = experiment: as above
HLA-B*08:01 [6] = experiment: as above
HLA-A*11:01 [7] = experiment: as above
HLA-A*26:02 = experiment: IEDB peptide-MHC binding, purified MHC/competitive/fluorescence; filed as Kd, often an IC50 or EC50 that approximates it; ≥ and ≤ were set here for values at or beyond the usual limits of such assays; details: source organism: Mycobacterium tuberculosis variant bovis BCG str. Pasteur 1173P2
HLA-A*26:01 [8] = experiment: as above; details: source organism: Mycobacterium tuberculosis variant bovis BCG str. Pasteur 1173P2
HLA-A*26:03 [9] = experiment: as above; details: source organism: Mycobacterium tuberculosis variant bovis BCG str. Pasteur 1173P2
HLA-A*68:02 [10] = experiment: as above; details: source organism: Mycobacterium tuberculosis variant bovis BCG str. Pasteur 1173P2
HLA-A*02:06 = experiment: as above; details: source organism: Mycobacterium tuberculosis variant bovis BCG str. Pasteur 1173P2
HLA-B*07:02 [11] = experiment: as above; details: source organism: Mycobacterium tuberculosis variant bovis BCG str. Pasteur 1173P2
HLA-A*26:01 [12] = experiment: IEDB peptide-MHC binding, purified MHC/direct/fluorescence; filed as Kd, often an IC50 or EC50 that approximates it; ≥ and ≤ were set here for values at or beyond the usual limits of such assays; details: source organism: Yersinia enterocolitica subsp. enterocolitica 8081
HLA-A*26:03 [13] = experiment: as above; details: source organism: Yersinia enterocolitica subsp. enterocolitica 8081
HLA-A*03:01 [14] = experiment: as above; details: source organism: Yersinia pestis
HLA-A*68:02 [15] = experiment: as above; details: source organism: Yersinia pestis
HLA-B*07:02 [16] = experiment: as above; details: source organism: Yersinia pestis
HLA-C*14:02 = experiment: as above; details: source organism: Homo sapiens
HLA-A*31:01 [17] = experiment: IEDB peptide-MHC binding, purified MHC/competitive/fluorescence; ≥ and ≤ were set here for values at or beyond the usual limits of such assays
HLA-A*25:01 = experiment: as above
HLA-A*24:02 = experiment: as above
HLA-B*51:01 = experiment: as above
HLA-A*02:01 [18] = experiment: as above
HLA-B*58:01 [19] = experiment: as above
HLA-B*53:01 = experiment: as above
HLA-B*18:01 [20] = experiment: as above
HLA-B*37:01 = experiment: as above
HLA-A*03:01 [21] = experiment: as above
HLA-B*14:02 = experiment: as above
HLA-B*44:03 = experiment: as above
HLA-A*68:02 [22] = experiment: as above
HLA-A*01:01 [23] = experiment: as above
HLA-B*35:01 = experiment: as above
HLA-B*40:02 = experiment: as above
HLA-B*08:01 [24] = experiment: as above
HLA-B*07:02 [25] = experiment: as above
HLA-A*29:02 = experiment: as above
HLA-A*11:01 [26] = experiment: as above
[27] = source organism: Mycobacterium tuberculosis
[28] = source organism: Mycobacterium tuberculosis str. Haarlem
[29] = source organism: Yersinia pestis
[30] = source organism: Yersinia enterocolitica subsp. enterocolitica 8081
[31] = source organism: Tarsius lariang

AVFDSFVER
Kd (HLA-A*31:01 [1]; [27]): 0.004 µM | Kd (HLA-B*15:17; [27]): ≥ 20 µM | Kd (HLA-B*46:01; [27]): ≥ 20 µM | Kd (HLA-A*02:01 [2]; [27]): ≥ 20 µM | Kd (HLA-B*58:01 [3]; [27]): ≥ 20 µM | Kd (HLA-B*18:01 [4]; [27]): ≥ 20 µM | Kd (HLA-B*40:01; [27]): ≥ 20 µM | Kd (HLA-B*27:05; [27]): ≥ 20 µM | Kd (HLA-B*08:02; [28]): ≥ 20 µM | Kd (HLA-B*48:01; [27]): ≥ 20 µM | Kd (HLA-A*01:01 [5]; [27]): ≥ 20 µM | Kd (HLA-A*69:01): ≥ 20 µM | Kd (HLA-B*08:03; [28]): ≥ 20 µM | Kd (HLA-B*57:01; [27]): ≥ 20 µM | Kd (HLA-B*15:01; [27]): ≥ 20 µM | Kd (HLA-B*08:01 [6]; [28]): ≥ 20 µM | Kd (HLA-A*11:01 [7]; [27]): 0.009 µM | Kd (HLA-A*26:02): ≥ 20 µM | Kd (HLA-A*26:01 [8]): ≥ 20 µM | Kd (HLA-A*26:03 [9]): ≥ 20 µM | Kd (HLA-A*68:02 [10]): ≥ 20 µM | Kd (HLA-A*02:06): 0.0023 µM | Kd (HLA-B*07:02 [11]): ≥ 20 µM

SDDQLRLLK
Kd (HLA-A*31:01 [1]; [29]): ≥ 20 µM | Kd (HLA-B*15:17; [29]): ≥ 20 µM | Kd (HLA-B*46:01; [29]): ≥ 20 µM | Kd (HLA-A*26:01 [12]): ≥ 20 µM | Kd (HLA-A*02:01 [2]; [29]): ≥ 20 µM | Kd (HLA-B*58:01 [3]; [29]): ≥ 20 µM | Kd (HLA-B*18:01 [4]; [29]): ≥ 20 µM | Kd (HLA-B*40:01; [29]): ≥ 20 µM | Kd (HLA-B*27:05; [29]): ≥ 20 µM | Kd (HLA-B*08:02; [30]): ≥ 20 µM | Kd (HLA-A*26:03 [13]): ≥ 20 µM | Kd (HLA-A*03:01 [14]): ≥ 20 µM | Kd (HLA-B*48:01; [29]): ≥ 20 µM | Kd (HLA-A*68:02 [15]): ≥ 20 µM | Kd (HLA-A*01:01 [5]; [29]): ≥ 20 µM | Kd (HLA-B*08:03; [30]): ≥ 20 µM | Kd (HLA-B*57:01; [29]): ≥ 20 µM | Kd (HLA-B*15:01; [29]): ≥ 20 µM | Kd (HLA-B*08:01 [6]; [30]): ≥ 20 µM | Kd (HLA-B*07:02 [16]): ≥ 20 µM | Kd (HLA-A*11:01 [7]; [29]): 0.407 µM

SYMMDDLELI
Kd (HLA-C*14:02): 0.575 µM | IC50 (HLA-A*31:01 [17]; source organism: Homo sapiens): ≥ 20 µM | IC50 (HLA-A*25:01; source organism: Homo sapiens): ≥ 20 µM | IC50 (HLA-A*24:02; source organism: Homo sapiens): 0.0113 µM | IC50 (HLA-B*51:01; source organism: Homo sapiens): ≥ 20 µM | IC50 (HLA-A*02:01 [18]; source organism: Homo sapiens): 0.131 µM | IC50 (HLA-B*58:01 [19]; source organism: Homo sapiens): ≥ 20 µM | IC50 (HLA-B*53:01; source organism: Homo sapiens): ≥ 20 µM | IC50 (HLA-B*18:01 [20]; source organism: Homo sapiens): ≥ 20 µM | IC50 (HLA-B*37:01; source organism: Homo sapiens): ≥ 20 µM | IC50 (HLA-A*03:01 [21]; source organism: Homo sapiens): ≥ 20 µM | IC50 (HLA-B*14:02; source organism: Homo sapiens): ≥ 20 µM | IC50 (HLA-B*44:03; source organism: Homo sapiens): ≥ 20 µM | IC50 (HLA-A*68:02 [22]; source organism: Homo sapiens): 0.777 µM | IC50 (HLA-A*01:01 [23]; source organism: Homo sapiens): ≥ 20 µM | IC50 (HLA-B*35:01; source organism: Homo sapiens): ≥ 20 µM | IC50 (HLA-B*40:02; source organism: Homo sapiens): ≥ 20 µM | IC50 (HLA-B*08:01 [24]; source organism: Homo sapiens): ≥ 20 µM | IC50 (HLA-B*07:02 [25]; source organism: Homo sapiens): ≥ 20 µM | IC50 (HLA-A*29:02; source organism: Homo sapiens): 0.824 µM | IC50 (HLA-A*11:01 [26]; source organism: Homo sapiens): ≥ 20 µM

TEAEKWPFF
IC50 (HLA-A*31:01 [17]; [31]): ≥ 20 µM | IC50 (HLA-A*25:01; [31]): ≥ 20 µM | IC50 (HLA-A*24:02; [31]): 0.57 µM | IC50 (HLA-B*51:01; [31]): ≥ 20 µM | IC50 (HLA-A*02:01 [18]; [31]): ≥ 20 µM | IC50 (HLA-B*58:01 [19]; [31]): ≥ 20 µM | IC50 (HLA-B*53:01; [31]): ≥ 20 µM | IC50 (HLA-B*18:01 [20]; [31]): 0.0432 µM | IC50 (HLA-B*37:01; [31]): 0.394 µM | IC50 (HLA-A*03:01 [21]; [31]): ≥ 20 µM | IC50 (HLA-B*14:02; [31]): ≥ 20 µM | IC50 (HLA-B*44:03; [31]): ≥ 20 µM | IC50 (HLA-A*68:02 [22]; [31]): ≥ 20 µM | IC50 (HLA-A*01:01 [23]; [31]): ≥ 20 µM | IC50 (HLA-B*35:01; [31]): ≥ 20 µM | IC50 (HLA-B*40:02; [31]): 0.0405 µM | IC50 (HLA-B*08:01 [24]; [31]): ≥ 20 µM | IC50 (HLA-B*07:02 [25]; [31]): ≥ 20 µM | IC50 (HLA-A*29:02; [31]): ≥ 20 µM | IC50 (HLA-A*11:01 [26]; [31]): ≥ 20 µM
